Source: patent US20240400657A1 (MorphoSys, published 2024)
Numbering of substitutions follows the chain as printed.

T1: full length cynomolgus C5aR stably expressed on CHO Flp-In cells (cynomolgus monkey (Macaca fascicularis))
T1 chain: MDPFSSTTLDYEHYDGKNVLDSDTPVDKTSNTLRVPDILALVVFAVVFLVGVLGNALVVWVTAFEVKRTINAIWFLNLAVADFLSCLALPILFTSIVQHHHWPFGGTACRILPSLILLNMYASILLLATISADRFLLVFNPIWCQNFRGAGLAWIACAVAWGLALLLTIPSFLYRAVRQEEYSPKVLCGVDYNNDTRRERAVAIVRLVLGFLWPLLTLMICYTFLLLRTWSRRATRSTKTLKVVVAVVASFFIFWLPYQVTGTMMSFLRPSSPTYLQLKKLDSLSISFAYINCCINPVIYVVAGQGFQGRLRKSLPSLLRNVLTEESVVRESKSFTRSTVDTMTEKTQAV

T2: full length human C5aR stably expressed on CHO Flp-In cells (human, UniProt P21730 1-350)
T2 construct: also called human C5aR expressed on CHO cells
T2 sequence: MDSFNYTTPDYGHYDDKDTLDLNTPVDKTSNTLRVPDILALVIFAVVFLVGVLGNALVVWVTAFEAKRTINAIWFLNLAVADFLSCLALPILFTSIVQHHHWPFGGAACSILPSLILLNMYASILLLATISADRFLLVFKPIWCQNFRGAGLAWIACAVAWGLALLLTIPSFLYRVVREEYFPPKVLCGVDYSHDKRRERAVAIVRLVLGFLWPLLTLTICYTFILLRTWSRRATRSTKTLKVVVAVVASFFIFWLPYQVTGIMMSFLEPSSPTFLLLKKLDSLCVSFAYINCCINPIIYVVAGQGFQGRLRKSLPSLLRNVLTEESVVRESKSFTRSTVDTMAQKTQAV

T3: engineered version of human C5aR expressed on CHO cells of the PathHunter β-arrestin assay (DiscoveRx) (human, UniProt P21730 1-350)
T3 sequence (looked up): T2 sequence

T4: human C5aR_NT-bio peptide (human, biotin tag (position not given))
T4 construct: Chemically synthesized linear peptide (Genscript); also called human C5aR N-terminal peptide; human C5aR peptide
T4 peptide: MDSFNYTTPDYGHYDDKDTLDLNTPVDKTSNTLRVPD

T5: full length mouse C5aR stably expressed on CHO Flp-In cells (mouse (Mus musculus), UniProt P30993 1-351)
T5 sequence: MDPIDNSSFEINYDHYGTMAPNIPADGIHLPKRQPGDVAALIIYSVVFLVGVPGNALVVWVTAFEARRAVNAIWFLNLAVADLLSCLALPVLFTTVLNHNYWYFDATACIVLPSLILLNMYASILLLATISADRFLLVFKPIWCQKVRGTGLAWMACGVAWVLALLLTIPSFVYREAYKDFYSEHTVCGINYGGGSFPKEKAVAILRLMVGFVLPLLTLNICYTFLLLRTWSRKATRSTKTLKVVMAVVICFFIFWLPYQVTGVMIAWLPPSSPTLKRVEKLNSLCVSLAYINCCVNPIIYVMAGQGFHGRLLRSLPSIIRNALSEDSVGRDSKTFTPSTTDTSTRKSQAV

T6: Mouse FcRn p51 [1-297]/AviHis/p14 biotinylated (mouse, UniProt Q61559 22-298; P01887 21-119, biotinylated in vitro with BirA (Avi tag))
T6 construct: Heterodimer; UniProt Q61559 (p51); also called Murine FcRn
T6 chain 1: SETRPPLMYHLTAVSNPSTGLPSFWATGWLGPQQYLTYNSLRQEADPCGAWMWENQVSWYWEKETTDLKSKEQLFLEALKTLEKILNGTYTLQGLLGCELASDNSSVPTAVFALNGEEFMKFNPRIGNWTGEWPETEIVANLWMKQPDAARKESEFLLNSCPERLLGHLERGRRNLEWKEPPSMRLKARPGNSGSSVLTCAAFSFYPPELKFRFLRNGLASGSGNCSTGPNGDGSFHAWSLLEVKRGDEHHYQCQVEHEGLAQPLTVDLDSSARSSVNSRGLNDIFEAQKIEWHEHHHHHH
T6 chain 2: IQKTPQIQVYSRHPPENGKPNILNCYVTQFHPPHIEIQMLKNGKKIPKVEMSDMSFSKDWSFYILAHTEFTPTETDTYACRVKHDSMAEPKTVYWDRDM

T7: Rat FcRn p51 [1-298]/AviHis/p14 biotinylated (rat, UniProt P13599 23-299; P07151 21-119, biotinylated in vitro with BirA (Avi tag))
T7 construct: Heterodimer; UniProt P13599 (p51)
T7 sequence 1: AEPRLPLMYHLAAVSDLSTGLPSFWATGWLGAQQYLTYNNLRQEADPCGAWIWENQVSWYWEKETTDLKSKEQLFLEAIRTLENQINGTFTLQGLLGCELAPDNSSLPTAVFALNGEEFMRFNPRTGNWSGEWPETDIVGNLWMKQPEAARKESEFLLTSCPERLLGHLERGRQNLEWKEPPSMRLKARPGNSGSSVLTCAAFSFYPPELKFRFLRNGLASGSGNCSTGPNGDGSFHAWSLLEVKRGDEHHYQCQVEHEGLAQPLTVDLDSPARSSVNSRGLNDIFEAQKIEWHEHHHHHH
T7 sequence 2: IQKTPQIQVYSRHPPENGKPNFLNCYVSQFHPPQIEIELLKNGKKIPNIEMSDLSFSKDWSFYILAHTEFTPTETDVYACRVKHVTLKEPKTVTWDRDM

B1: MAB #2 (antibody, human IgG1, lambda)
heavy: EVQLVESGGGLVKPGGSLRLSCAASGFTFSSYAMHWVRQAPGKGLEWVGRIKSVAQGGTTDYAAHVKGRFTISRDDSKNTLYLQMNSLKTEDTAVYYCARVSHSTFDVWGQGTLVTVSSASTKGPSVFPLAPSSKSTSGGTAALGCLVKDYFPEPVTVSWNSGALTSGVHTFPAVLQSSGLYSLSSVVTVPSSSLGTQTYICNVNHKPSNTKVDKRVEPKSCDKTHTCPPCPAPEAEGAPSVFLFPPKPKDTLMISRTPEVTCVVVDVSHEDPEVKFNWYVDGVEVHNAKTKPREEQYNSTYRVVSVLTVLHQDWLNGKEYKCKVSNKALPSSIEKTISKAKGQPREPQVYTLPPSREEMTKNQVSLTCLVKGFYPSDIAVEWESNGQPENNYKTTPPVLDSDGSFFLYSKLTVDKSRWQQGNVFSCSVMHEALHNHYTQKSLSLSPGK
light: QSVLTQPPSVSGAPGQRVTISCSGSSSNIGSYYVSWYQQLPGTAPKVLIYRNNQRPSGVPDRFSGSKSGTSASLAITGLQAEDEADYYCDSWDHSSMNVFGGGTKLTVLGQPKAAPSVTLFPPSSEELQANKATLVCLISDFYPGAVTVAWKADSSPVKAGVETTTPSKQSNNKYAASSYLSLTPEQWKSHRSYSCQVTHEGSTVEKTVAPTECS
notes: lambda 1 light chain
B2: MAB #1 (antibody, human IgG1, lambda)
heavy: B1 heavy with V54K, H103F
light: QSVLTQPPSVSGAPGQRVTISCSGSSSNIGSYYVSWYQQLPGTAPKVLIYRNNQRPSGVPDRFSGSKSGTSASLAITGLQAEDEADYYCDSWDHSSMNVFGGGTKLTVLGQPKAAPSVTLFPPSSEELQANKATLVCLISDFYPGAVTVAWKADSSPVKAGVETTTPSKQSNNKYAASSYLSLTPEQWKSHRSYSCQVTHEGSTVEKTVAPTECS
notes: lambda 1 light chain, VH3-15 framework

Experiments:
[1] = molecular target: T1, full length cynomolgus C5aR stably …; test: FACS on Flp-In CHO cells, IgG titration
Experimental: (§1) The C5aR-CHO Flp-In™ cell lines were blocked and IgGs were added either in serial dilutions or at a single (high) concentration of 300 nM. For detection of IgG binding, an R-phycoerythrin (R-PE) conjugated anti-human IgG (Fc-gamma fragment specific)2 antibody was added and fluorescence was measured using the FACS Array or Novocyte device.

[2] = molecular target: T2, full length human C5aR stably expressed …; test: FACS on Flp-In CHO cells, IgG titration
Experimental: as §1

[3] = molecular target: T3, engineered version of human C5aR …; test: cell-based or functional assay
[4] = molecular target: T4, human C5aR_NT-bio peptide; test: BLI (Octet HTX), biotinylated peptide on SA sensors, IgG as analyte, 1:1 fit, apparent (bivalent)
[5] = molecular target: T5, full length mouse C5aR stably expressed …; test: FACS, CHO Flp-In cells expressing murine C5aR, single IgG concentration
[6] = molecular target: T8, Human FcRn p51 [1-297]/AviHis/p14 biotinylated (human, UniProt P55899 24-298; P16213 21-119); test: BLI (Octet HTX), biotinylated FcRn on SA sensors, IgG titrated, steady state fit, apparent KD, pH 6.0; * deviation from fit model; pH 6.0
T8 construct: Heterodimer of two polypeptides; UniProt P55899 (p51), P61769 (p14) printed
T8 sequence (P55899 other isoform, or with tags, fused parts or gaps limits assumed, chain 1 of 2): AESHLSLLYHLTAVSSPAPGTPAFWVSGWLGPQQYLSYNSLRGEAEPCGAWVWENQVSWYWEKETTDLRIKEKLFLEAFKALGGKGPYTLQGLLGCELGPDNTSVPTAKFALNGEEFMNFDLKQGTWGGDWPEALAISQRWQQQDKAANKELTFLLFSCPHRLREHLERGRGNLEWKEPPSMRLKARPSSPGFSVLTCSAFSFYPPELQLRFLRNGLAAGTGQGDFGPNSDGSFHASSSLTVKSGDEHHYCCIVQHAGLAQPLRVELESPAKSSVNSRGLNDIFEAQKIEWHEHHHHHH
T8 sequence (P16213 21-119 limits assumed, chain 2 of 2): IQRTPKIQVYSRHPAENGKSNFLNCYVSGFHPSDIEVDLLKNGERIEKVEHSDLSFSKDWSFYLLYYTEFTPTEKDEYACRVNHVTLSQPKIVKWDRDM
Text: (§2) 0.5 nm of biotinylated human, cynomolgus, mouse and rat FcRn were captured on streptavidin (SA) sensors (FortéBIO, Pall Life Sciences). […] All sensorgrams were fitted using Data Analysis Software 10.0 (FortéBIO, Pall Life Sciences) to determine the apparent affinity and the data was fitted with a steady state model.

[7] = molecular target: T6, Mouse FcRn p51 [1-297]/AviHis/p14 …; test: BLI (Octet HTX), biotinylated FcRn on SA sensors, IgG titrated, steady state fit, apparent KD, pH 7.2
Text: as §2

[8] = molecular target: T7, Rat FcRn p51 [1-298]/AviHis/p14 …; test: as above
Text: as §2

[9] = molecular target: T9, Cell surface rec. 3_Fc (h); test: Protein Panel Profiling (3P), MSD ECL, coated antigen, IgG 10 nM
T9 construct: identity not disclosed
Experimental: 32 different proteins and controls were coated on two 384-well MSD standard plates at a concentration of 1.0 μg/mL at 4° C. over night. The coating solution was discarded and plates were blocked with 50 μL 3% (w/v) BSA in PBS for one hour at RT on a microtiter plate shaker (˜500 rpm) followed by three washing steps with 50 μL washing buffer (PBS with 0.05% (v/v) Tween 20). IgG samples were diluted to 100 nM and 10 nM in assay buffer (PBS with 0.5% (w/v) BSA, 0.05% (v/v) Tween 20). As controls, isotype control antibody MOR03207 (IgG1f_AEASS) and assay buffer were used. Samples and controls were added at 30 μL/well and incubated for three hours at RT on a microtiter plate shaker. The plates were washed three times and 30 μL detection antibody (ECL-labeled anti-human Fab) were added per well and incubated for one hour on a microtiter plate shaker (˜500 rpm). After washing the MSD plate and adding 35 μL/well MSD Read Buffer T with surfactant, electro-chemiluminescence signals were detected using a SECTOR® Imager S600 instrument (Meso Scale Diagnostics).
For evaluation, binding signals of the antibody sample to a certain protein were divided by the respective binding signals of the reference antibody MOR03207 resulting in a binding ratio (BR). The cumulative binding ratio (CBR) of all proteins except the controls (25 in total) was then calculated: CBR up to 150 indicates an IgG without detectable unspecific binding. Values above 150 indicates an IgG with increased unspecific binding compared to the reference antibody MOR03207.

Binder | EC50 [1] [nM] | EC50 [2] [nM] | Activity of human C5a EC50 (nM) in presence of 50 nM anti-C5aR antibody, β-arrestin recruitment [3] [nM] | x fold reduced activity of C5a in presence of anti-C5aR antibody (50 nM) [3] [fold] | Kd [4] [nM] | koff [4] [s⁻¹] | kon [4] [M⁻¹ s⁻¹] | binding result [5] | Kd [6] [nM] | Kd [7] [nM] | Kd [8] [nM] | binding ratio (signal / signal of MOR03207) [9]
B1 | 1.4 | 1.2 | 37 | 12.8 | 0.29 | 0.000111 | 378000 | no binding (tested: 300 nM) | 36 | 130 | 300 | 2
B2 | 1.1 | 1.7 | 37 | 12.8 | 0.02 | 9.99e-06 | 476000 | no binding (tested: 300 nM) | 9 | 39 | 110 | 2
